From PMC5779224 (2017)

B1: AnkB_AI-b (aa 865–896) [human] / AnkB 28–847 (MBD + partial AI-c) [human] (parent complex)
chain 1: EDLKELGDDSLPSSQFLDGMNYLRYSLEGGRS
chain 2: KSDSNASFLRAARAGNLDKVVEYLKGGIDINTCNQNGLNALHLAAKEGHVGLVQELLGRGSSVDSATKKGNTALHIASLAGQAEVVKVLVKEGANINAQSQNGFTPLYMAAQENHIDVVKYLLENGANQSTATEDGFTPLAVALQQGHNQAVAILLENDTKGKVRLPALHIAARKDDTKSAALLLQNDHNADVQSKMMVNRTTESGFTPLHIAAHYGNVNVATLLLNRGAAVDFTARNGITPLHVASKRGNTNMVKLLLDRGGQIDAKTRDGLTPLHCAARSGHDQVVELLLERGAPLLARTKNGLSPLHMAAQGDHVECVKHLLQHKAPVDDVTLDYLTALHVAAHCGHYRVTKLLLDKRANPNARALNGFTPLHIACKKNRIKVMELLVKYGASIQAITESGLTPIHVAAFMGHLNIVLLLLQNGASPDVTNIRGETALHMAARAGQVEVVRCLLRNGALVDARAREEQTPLHIASRLGKTEIVQLLLQHMAHPDAATTNGYTPLHISAREGQVDVASVLLEAGAAHSLATKKGFTPLHVAAKYGSLDVAKLLLQRRAAADSAGKNGLTPLHVAAHYDNQKVALLLLEKGASPHATAKNGYTPLHIAAKKNQMQIASTLLNYGAETNIVTKQGVTPLHLASQEGHTDMVTLLLDKGANIHMSTKSGLTSLHLAAQEDKVNVADILTKHGADQDAHTKLGYTPLIVACHYGNVKMVNFLLKQGANVNAKTKNGYTPLHQAAQQGHTHIINVLLQHGAKPNATTANGNTALAIAKRLGYISVVDTLKVVTEEVTTTTTTITEKHKLNVPETMTEVLDVSD
B2: AnkG linker ΔAI-c (aa 861–920) [rat] / AnkG 38–855 (AnkG MBD-AI-c protein; MBD + partial AI-c) [rat] (parent complex)
chain 1: KASAPEKLSDGEYISDGEEGEDAITGDTDKYLGPQDLKELGDDSLPAEGYVGFSLGARSA
chain 2: KSDANASYLRAARAGHLEKALDYIKNGVDVNICNQNGLNALHLASKEGHVEVVSELLQREANVDAATKKGNTALHIASLAGQAEVVKVLVTNGANVNAQSQNGFTPLYMAAQENHLEVVRFLLDNGASQSLATEDGFTPLAVALQQGHDQVVSLLLENDTKGKVRLPALHIAARKDDTKAAALLLQNDTNADIESKMVVNRATESGFTPLHIAAHYGNINVATLLLNRAAAVDFTARNDITPLHVASKRGNANMVKLLLDRGAKIDAKTRDGLTPLHCGARSGHEQVVEMLLDRAAPILSKTKNGLSPLHMATQGDHLNCVQLLLQHNVPVDDVTNDYLTALHVAAHCGHYKVAKVLLDKKANPNAKALNGFTPLHIACKKNRIRVMELLLKHGASIQAVTESGLTPIHVAAFMGHVNIVSQLMHHGASPNTTNVRGETALHMAARSGQAEVVRYLVQDGAQVEAKAKDDQTPLHISARLGKADIVQQLLQQGASPNAATTSGYTPLHLSAREGHEDVAAFLLDHGASLSITTKKGFTPLHVAAKYGKLEVASLLLQKSASPDAAGKSGLTPLHVAAHYDNQKVALLLLDQGASPHAAAKNGYTPLHIAAKKNQMDIATSLLEYGADANAVTRQGIASVHLAAQEGHVDMVSLLLSRNANVNLSNKSGLTPLHLAAQEDRVNVAEVLVNQGAHVDAQTKMGYTPLHVGCHYGNIKIVNFLLQHSAKVNAKTKNGYTPLHQAAQQGHTHIINVLLQNNASPNELTVNGNTALAIARRLGYISVVDTLKVVTEEIMTTTTITEKHKMNVPETMNEVLDMS
B3: AnkB_AI-a peptide (aa 1623–1635) [human] / AnkB_MBD (AnkB ANK repeats only, aa 28–827) [human] (parent complex)
chain 1: HPPIVSEEDISVG
chain 2: KSDSNASFLRAARAGNLDKVVEYLKGGIDINTCNQNGLNALHLAAKEGHVGLVQELLGRGSSVDSATKKGNTALHIASLAGQAEVVKVLVKEGANINAQSQNGFTPLYMAAQENHIDVVKYLLENGANQSTATEDGFTPLAVALQQGHNQAVAILLENDTKGKVRLPALHIAARKDDTKSAALLLQNDHNADVQSKMMVNRTTESGFTPLHIAAHYGNVNVATLLLNRGAAVDFTARNGITPLHVASKRGNTNMVKLLLDRGGQIDAKTRDGLTPLHCAARSGHDQVVELLLERGAPLLARTKNGLSPLHMAAQGDHVECVKHLLQHKAPVDDVTLDYLTALHVAAHCGHYRVTKLLLDKRANPNARALNGFTPLHIACKKNRIKVMELLVKYGASIQAITESGLTPIHVAAFMGHLNIVLLLLQNGASPDVTNIRGETALHMAARAGQVEVVRCLLRNGALVDARAREEQTPLHIASRLGKTEIVQLLLQHMAHPDAATTNGYTPLHISAREGQVDVASVLLEAGAAHSLATKKGFTPLHVAAKYGSLDVAKLLLQRRAAADSAGKNGLTPLHVAAHYDNQKVALLLLEKGASPHATAKNGYTPLHIAAKKNQMQIASTLLNYGAETNIVTKQGVTPLHLASQEGHTDMVTLLLDKGANIHMSTKSGLTSLHLAAQEDKVNVADILTKHGADQDAHTKLGYTPLIVACHYGNVKMVNFLLKQGANVNAKTKNGYTPLHQAAQQGHTHIINVLLQHGAKPNATTANGNTALAIAKRLGYISVVDTLKVVTEEVTTTTTTI
B4: AnkB_AI-c (aa 828–852) [human] / AnkB_MBD (AnkB ANK repeats only, aa 28–827) [human] (parent complex)
chain 1: TEKHKLNVPETMTEVLDVSDEEGDD
chain 2: B3 chain 2

Variants of: B1
Assay: ITC; parent: 2.7e+03 nM

Kd	Variant
16 µM	chain 1 EDLKELGDDSLPSSQFLDGMNALRYSLEGGRS [chain 1 Y22A]

Variants of: B1
Assay: ITC; parent: 2.7e+03 nM
Remark: another data set of the same source

Kd	Variant
8.5 µM	chain 2 I240Q, chain 2 L273Q

Variants of: B2
Assay: ITC; parent: 1.6e+03 nM

Kd	Variant
2.6 µM	chain 2 F104Q, chain 2 F137Q
3.9 µM	chain 2 I240Q, chain 2 L273Q

Variants of: B3
Assay: fluorescence polarisation; parent: 7.3e+03 nM

Kd	Variant
43.8 µM	chain 2 R10E, chain 2 R13E

Variants of: B4
Assay: ITC; parent: 360 nM

Kd	Variant
2.7 µM	chain 1 TEKHKLKVPETMTEVLDVSDEEGDD [chain 1 N7K]
3.9 µM	chain 1 TEKHKLNVPETMTEVQDVSDEEGDD [chain 1 L16Q]
4.4 µM	chain 1 TEKHKLNVPETQTEVLDVSDEEGDD [chain 1 M12Q]

Variants of: B4
Assay: ITC; parent: 360 nM
Remark: another data set of the same source

Kd	Variant
2400 nM	chain 2 N568A
